From patent publication US20130123201A1, “MODULATION OF CYTOKINE-INDUCED CHRONIC INFLAMMATORY RESPONSES” (UNIVERSITY OF MANITOBA, priority 2010, published 2013) come the findings set out here.

The target of the assay is TNF-receptor-1 (TNF-R1) (human) (UniProt P19438). Kind of assay: cell-based or functional assay.
Chain of TNF-receptor-1 (TNF-R1) (human) (P19438 30-455): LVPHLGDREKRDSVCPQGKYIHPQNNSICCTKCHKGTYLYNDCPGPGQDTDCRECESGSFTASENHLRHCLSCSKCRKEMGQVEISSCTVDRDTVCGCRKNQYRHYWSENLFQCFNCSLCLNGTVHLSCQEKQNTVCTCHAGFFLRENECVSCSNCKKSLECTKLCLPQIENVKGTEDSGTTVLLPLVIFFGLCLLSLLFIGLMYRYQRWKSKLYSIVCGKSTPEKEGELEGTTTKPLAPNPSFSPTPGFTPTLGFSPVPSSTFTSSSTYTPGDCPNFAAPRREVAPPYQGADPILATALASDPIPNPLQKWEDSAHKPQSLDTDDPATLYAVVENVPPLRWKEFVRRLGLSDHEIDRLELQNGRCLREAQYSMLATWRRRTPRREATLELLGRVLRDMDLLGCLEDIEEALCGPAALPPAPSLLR

Regarding “Recombinant human cytokine IL-32γ (from UniProt P24001 31-234) (ligand)”, the Relative fold change in phosphorylation of the TNF-R1 S274 array peptide (kinome profiling, THP-1 cells, 20 ng/mL IL-32, 15 min) was determined as 4.7 fold.
